This data set can be described thus: soluble on expression in E. coli; label from the status in PepcDB or PDB records.
For “MGSDKIHHHHHHMKVVFLICNPAAGGGRAGKIWNRVEDLLKKHGIDHKFAFTERPGHAMEISKKAFKEGYRRIAAFGGDGTVNEMVNGIFLNGYDLREVVFGWIPFGSGKDWARTIGVPLEIEEAIKMLKDGKEFVQDLGVGEYEKASGEIEKRAFVNVAGLFFDGFVTYRTNLLKRKNRVSYFSRIFSSIIEYDPPTARIQIDEKVWEKRVFSMNVGICKYNGGGMNQLPHAVPDDGLLAVTVINDIGKLRILANLHRVFNGKLLEHPGVEGYQAKKVVVEFQRDEPVEFDGESFWAKKIFFSIIPGVIRVLVKK”, the “soluble on expression in E. coli” value is on record as “not soluble”.

On to “MGSDKIHHHHHHMKYKNLFFDLDDTIWAFSRNARDTFEEVYQKYSFDRYFDSFDHYYTLYQRRNTELWLEYGEGKVTKEELNRQRFFYPLQAVGVEDEALAERFSEDFFAIIPTKSGLMPHAKEVLEYLAPQYNLYILSNGFRELQSRKMRSAGVDRYFKKIILSEDLGVLKPRPEIFHFALSATASALRESLMIGDSWEADITGAHGVGMHQAFYNVTERTVFPFQPTYHIHSLKELMNLL”, for which the “soluble on expression in E. coli” value was “not soluble”.

Consider “MGSDKIHHHHHHMKYTELLQLQTFFSRFKKIDFIKRINDNILELSFDRERFIFDLTRAMSAIYTAKFNAKNYNAPFDFMLKKYFSNAFIKEVKVLEGNRILCFSVKANKAYKSYESKIYFEFTGKNTNVILTDEKDLIIEALRHIDKSYRVVKPNVILESLKPYKMDENFEEIKDFADYFSRKFTSIYESKIKQIKNLKLAQVDKKIQNLQELFSSLDEENSLLLKALEYRKRADVLFANLSVLKDYEREFKLDDFEGKELEFKLEFNPKQSANLYYKNAKKLEQKAKNLNIQRQNLKEKLDFTLSLKELLLQAKSEIELEILLPKKNSKKNQDHKQEDLVANFYFNEFKICVGKNEKGNEFLLKNAKKDDLWLHVRDIPSAHTLIVSNKQKISLDVIEFAARLCVSFSKLKKGSYWVDYTLKNFVKVQQKAFVNYTNFKSINITKD”, for which the “soluble on expression in E. coli” value is given as “not soluble”.

As to “MGSDKIHHHHHHMLAASMVDLARRLGVSSVHVTFPGGDEYEGLGEAGYLQRLGSQYHWTNPGYQSFDDFLGQLSSRKRKQIRKERDAVARTGIRLSTLVGGDVKARHWDVFHAFYQAVVDRKWGRAYVSRAFFEELSASALADSVVLVWAEDGGEPLGAAFNMLGGDTLYGRTWGGGRHVDFLHFEACYYRALDFAIAQGLARVEAGAQGEHKVSRGYLPNATYSAHWIADSRLAEPVARYLVHERAMVTEDMASQTEEGPFRKG”, the “soluble on expression in E. coli” value is reported as “not soluble”.

For “MGSDKIHHHHHHMLAKRIIACLDVKDGRVVKGTNFENLRDSGDPVELGKFYSEIGIDELVFLDITASVEKRKTMLELVEKVAEQIDIPFTVGGGIHDFETASELILRGADKVSINTAAVENPSLITQIAQTFGSQAVVVAIDAKRVDGEFMVFTYSGKKNTGILLRDWVVEVEKRGAGEILLTSIDRDGTKSGYDTEMIRFVRPLTTLPIIASGGAGKMEHFLEAFLAGADAALAASVFHFREIDVRELKEYLKKHGVNVRLEGL”, the “soluble on expression in E. coli” value was “soluble”.

As to “MGSDKIHHHHHHMLASSDLPYRKMITWAGFYQDYYLVDINTGRKLPLLTQQPSDSDPSLSGDGKFVVYYQQGHVYLYDIAQGRRTNLTQSLKVSFADEDHDYPSNAPGYGFGPWLKDDAGILVYDKFDVWQFNTASKTGFALTAGQGRAQKIQYRLEGLVDNPDEPTTLAYNATVLLHGYSDKTKADGFYQATLGEAGVKTLMEGEYKLTVLGRSKDTDTLVFSKERFDLFPDLYTASYQAPQQAVKQTDLDKQRQAFNWSQAELVHWTNGDGKPLDGVLIKPTNYQAGERYPVLVYYYELMTDRLHAFPQMKVNHRPNFAWYVNNGYALFLPDIRFDIGYPGASSVQTLTSGVQKLIDMGVADANAIGLQGHSWSGYQTAFAITQTKMFKAAVAGAPVANMTSAYNGIRHGTGIARQFQYETGQSRIGASLFAAPQKYIENSPVFYADRIKTPLMIMFGDKDDAVPWEQGVEMYLAMRRAGKDVVFLQYEDEPHHLKKYPNKLDYSIRMMEYFDHYLKGKPAPAWLSQGEAYVEYKADDE”, the “soluble on expression in E. coli” value is given as “not soluble”.

As to “MGSDKIHHHHHHMLDITMFSKADSVKGQGVGSAYLELMRLLRTHWQDEFNIKVNRYGRSAVSHYHTVNPMFYLSTFMPNRGRKIGYVHFLPETLEGSLKLPRPFQMIFNRYLISFYKRMDHIVVVNPTFIPKLEAYHIKRADVTYIPNFVSKREFYEMTKAKQLRLRQQYGYDQNKFMIIGTGQIQDRKGVPDFITLAKQNPDIQFVWAGGFSFGRITDGYQELKQVVDNPPANLSFPGIVPREKLVDYYNMADLFLLPSYNELFPMSVLEAFSCGTPVLLRDLDLYRAIIDGYYQAASDVDDMQRQIDQLSHNPAGLQFLHDKAVLAAQD”, the “soluble on expression in E. coli” value is “not soluble”.

Consider “MGSDKIHHHHHHMLELLEPIAIFTHVARAGSFSAAARRLGISKSKVSTQVADLEHRLGVQLIQRTTRSLSLTEAGHLLYLQGEELLRDAEQAIASVHNLNDATRGVLKVGISQSFGVMHIIPALPSFMAKHPELELQVSLLDHKVDVVSEGLDLLLTMSEQLPLGMVARPLMKCQFLLVASPGYIAQHGEPTRPEQLVDHNCLVYQGEWHEHSMWQFKKGDDYCEIGVSGNFRVDNAPALKSAAISGLGVVYLASYLMEDEITKGTLVPLLKDWQLTHHLPLQAVYPRRKHLAPKVSSFIEFIKDHIGTPPYWDAPYVELFSKRQ”, for which the “soluble on expression in E. coli” value is “not soluble”.

For the sequence “MGSDKIHHHHHHMLERRDKEITDLKRRVANMVVVGKISHVDHKNARYRVKTGNLVSDWIPDTQARAGKTRSYEGRDVGEQVVVVSSSGDLSQGVIVGSIHTDANQAADKGNLHKTLYPDGTTIEYDDEQNSYALHLTSGGKFSLTISDGVSIKGDGKKLELQAAEGIKIISQGDLSLSAEKNIALKAGGSVSLHSDDGIALHSSEGVSIHSSDLKHNGTNIGNSHVHGGVSPGGSMTGGPN”, the “soluble on expression in E. coli” value is “not soluble”.

For “MGSDKIHHHHHHMLGFRALAKPGAISMWVPQYSHQTQPVYLMIADALEQDIESGRLAEGDRLPTLKDLAEALNVTPGTVGRAYDEAAKRGLVAGEVGRGTFVRQLRQPLPAPSVPTPVAGESSQIDLSIIKPNDAHMSEWLGTAISELAASSDLGQVLDYVTEGGHTSHKQAGATWIQRWLPDARWQQVVLTAGAQHGLLVAISSLSKSDDVVLCESLCYPGIISLAHSLGRRLRGVAMDEHGLIPEALRAACLEHRPSLLVCVTTHQNPTNSIMPPARRQAIAEIAREFDLFIVDDDIYGFLEPSPDYKPLAAYAPERSVYLTSLSKSVLPALRIGYLYAPPQTLSRLSSMVRSSVWMPSPLMAQLASNLINSGKADQLVRMQQQEAAARQHMAREILGQYKIRSQPHSFHIWLELPEPWTSDEFANLARDNGVTVVSGSQFLPERSHATSGVRIALMAPSRQELGFALTKLASLLDSPEPRLFY”, the “soluble on expression in E. coli” value is “not soluble”.

Consider “MGSDKIHHHHHHMLIKLNDYEKNITQKIKDLKNASGSHSPSIFTMAEQIPELNIKIDSCFLSNPYATALFLRYLKEELIDGQKLRSVLEFYPSQNSIIAKTVADFIGIDPKNVFIGNGAIEIIQAVMHNFVGKKIIVNIPTFSSYYEFAKSETNVVYYQLSKEDNYNLNIEHYLNFVKNENPDSVVLINPNNPDGGYINYEKLRYILSELKYVKNIIIDESFIHFAYENKDYNGINIEYLFKEFHNTIIIKSMSKDFGVAGIRIGYAIMSEDKIRGLLKNGYLWNSSGLSEYFLRLYVRKNFFDEYDKVRREYIQETQTFFRKLSGIKQFKVYPSMANFALVELLDGSSSTDFVAKMLIKYGIYMRTCNDKIGLEGEFIRIASRTLEENDMVLKSICDVFKE”, for which the “soluble on expression in E. coli” value is on record as “not soluble”.

“MGSDKIHHHHHHMLINADFSCRAALAPEHYQWVQSPQNGVERVMLDRVGAEKARATSIVRYAPESNFPYHLHPGGEEILVLSGTFSADNSDYPAGWYLRNPPKSGHQPYSNVGAVIFVKLWQMTADETHHVAIDTKDAKNWHRQGNREVCHLFLDTSEQVSLQRIEAGEILFPETIARGAELLVIEGELIEDSMLDKGQSYKKGSWIRLPVDATSPIVAGANGATVYLKTGHLSRIIGIDVY”: the “soluble on expression in E. coli” value is reported as “not soluble”.

These data come from the DeepSol protein solubility set.
